Assay results published in patent US20220364173.

Biological target: T1, Bst 2.0 DNA polymerase (UniProt P52026)
T1 sequence: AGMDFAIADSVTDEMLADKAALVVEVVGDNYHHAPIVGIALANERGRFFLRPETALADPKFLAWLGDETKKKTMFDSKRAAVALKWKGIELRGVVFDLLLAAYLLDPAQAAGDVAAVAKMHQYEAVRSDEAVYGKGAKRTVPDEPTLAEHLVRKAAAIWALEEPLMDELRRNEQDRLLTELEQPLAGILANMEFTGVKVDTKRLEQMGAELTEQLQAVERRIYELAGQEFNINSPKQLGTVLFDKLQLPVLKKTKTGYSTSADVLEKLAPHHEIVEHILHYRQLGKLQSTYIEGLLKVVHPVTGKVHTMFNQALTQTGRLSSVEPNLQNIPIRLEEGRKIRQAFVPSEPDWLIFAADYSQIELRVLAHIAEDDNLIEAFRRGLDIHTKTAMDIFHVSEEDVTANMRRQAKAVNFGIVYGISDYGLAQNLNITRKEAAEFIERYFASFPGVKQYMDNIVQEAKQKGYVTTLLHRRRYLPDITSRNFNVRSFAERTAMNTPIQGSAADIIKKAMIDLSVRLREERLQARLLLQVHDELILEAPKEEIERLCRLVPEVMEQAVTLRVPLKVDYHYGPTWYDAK
Conditions: N6-allyl-N6-methyladenosine at centre of NNANN, I2-cyclized; mutation rate on all DRACH motifs during reverse transcription; MgSO4, PEG 4000, 37 C

Sequence: UCGACGUNNANNGGCAUUGCU [NNam6ANN probe]
- activity: > 25%
